# IntAct's records for PubMed 20863830
# B1: Phospholipid-transporting ATPase ABCA3 (Homo sapiens), Q99758 (parent)
# chain: MAVLRQLALLLWKNYTLQKRKVLVTVLELFLPLLFSGILIWLRLKIQSENVPNATIYPGQSIQELPLFFTFPPPGDTWELAYIPSHSDAAKTVTETVRRALVINMRVRGFPSEKDFEDYIRYDNCSSSVLAAVVFEHPFNHSKEPLPLAVKYHLRFSYTRRNYMWTQTGSFFLKETEGWHTTSLFPLFPNPGPREPTSPDGGEPGYIREGFLAVQHAVDRAIMEYHADAATRQLFQRLTVTIKRFPYPPFIADPFLVAIQYQLPLLLLLSFTYTALTIARAVVQEKERRLKEYMRMMGLSSWLHWSAWFLLFFLFLLIAASFMTLLFCVKVKPNVAVLSRSDPSLVLAFLLCFAISTISFSFMVSTFFSKANMAAAFGGFLYFFTYIPYFFVAPRYNWMTLSQKLCSCLLSNVAMAMGAQLIGKFEAKGMGIQWRDLLSPVNVDDDFCFGQVLGMLLLDSVLYGLVTWYMEAVFPGQFGVPQPWYFFIMPSYWCGKPRAVAGKEEEDSDPEKALRNEYFEAEPEDLVAGIKIKHLSKVFRVGNKDRAAVRDLNLNLYEGQITVLLGHNGAGKTTTLSMLTGLFPPTSGRAYISGYEISQDMVQIRKSLGLCPQHDILFDNLTVAEHLYFYAQLKGLSRQKCPEEVKQMLHIIGLEDKWNSRSRFLSGGMRRKLSIGIALIAGSKVLILDEPTSGMDAISRRAIWDLLQRQKSDRTIVLTTHFMDEADLLGDRIAIMAKGELQCCGSSLFLKQKYGAGYHMTLVKEPHCNPEDISQLVHHHVPNATLESSAGAELSFILPRESTHRFEGLFAKLEKKQKELGIASFGASITTMEEVFLRVGKLVDSSMDIQAIQLPALQYQHERRASDWAVDSNLCGAMDPSDGIGALIEEERTAVKLNTGLALHCQQFWAMFLKKAAYSWREWKMVAAQVLVPLTCVTLALLAINYSSELFDDPMLRLTLGEYGRTVVPFSVPGTSQLGQQLSEHLKDALQAEGQEPREVLGDLEEFLIFRASVEGGGFNERCLVAASFRDVGERTVVNALFNNQAYHSPATALAVVDNLLFKLLCGPHASIVVSNFPQPRSALQAAKDQFNEGRKGFDIALNLLFAMAFLASTFSILAVSERAVQAKHVQFVSGVHVASFWLSALLWDLISFLIPSLLLLVVFKAFDVRAFTRDGHMADTLLLLLLYGWAIIPLMYLMNFFFLGAATAYTRLTIFNILSGIATFLMVTIMRIPAVKLEELSKTLDHVFLVLPNHCLGMAVSSFYENYETRRYCTSSEVAAHYCKKYNIQYQENFYAWSAPGVGRFVASMAASGCAYLILLFLIETNLLQRLRGILCALRRRRTLTELYTRMPVLPEDQDVADERTRILAPSPDSLLHTPLIIKELSKVYEQRVPLLAVDRLSLAVQKGECFGLLGFNGAGKTTTFKMLTGEESLTSGDAFVGGHRISSDVGKVRQRIGYCPQFDALLDHMTGREMLVMYARLRGIPERHIGACVENTLRGLLLEPHANKLVRTYSGGNKRKLSTGIALIGEPAVIFLDEPSTGMDPVARRLLWDTVARARESGKAIIITSHSMEECEALCTRLAIMVQGQFKCLGSPQHLKSKFGSGYSLRAKVQSEGQQEALEEFKAFVDLTFPGSVLEDEHQGMVHYHLPGRDLSWAKVFGILEKAKEKYGVDDYSVSQISLEQVFLSFAHLQPPTAEEGR
# partner: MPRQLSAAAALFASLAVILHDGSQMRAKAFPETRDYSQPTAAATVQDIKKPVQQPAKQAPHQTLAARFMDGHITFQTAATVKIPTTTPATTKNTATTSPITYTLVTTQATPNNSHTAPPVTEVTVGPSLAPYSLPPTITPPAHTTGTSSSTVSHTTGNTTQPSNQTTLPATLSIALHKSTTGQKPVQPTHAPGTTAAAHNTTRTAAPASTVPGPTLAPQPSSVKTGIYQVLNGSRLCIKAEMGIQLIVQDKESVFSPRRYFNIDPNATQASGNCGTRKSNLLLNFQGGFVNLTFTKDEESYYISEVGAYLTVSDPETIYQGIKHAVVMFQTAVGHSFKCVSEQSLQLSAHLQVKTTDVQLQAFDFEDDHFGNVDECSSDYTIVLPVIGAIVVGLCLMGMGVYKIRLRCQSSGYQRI
# B2: Phospholipid-transporting ATPase ABCA3 (Homo sapiens), Q99758 (parent)
# chain: B1 chain
# partner: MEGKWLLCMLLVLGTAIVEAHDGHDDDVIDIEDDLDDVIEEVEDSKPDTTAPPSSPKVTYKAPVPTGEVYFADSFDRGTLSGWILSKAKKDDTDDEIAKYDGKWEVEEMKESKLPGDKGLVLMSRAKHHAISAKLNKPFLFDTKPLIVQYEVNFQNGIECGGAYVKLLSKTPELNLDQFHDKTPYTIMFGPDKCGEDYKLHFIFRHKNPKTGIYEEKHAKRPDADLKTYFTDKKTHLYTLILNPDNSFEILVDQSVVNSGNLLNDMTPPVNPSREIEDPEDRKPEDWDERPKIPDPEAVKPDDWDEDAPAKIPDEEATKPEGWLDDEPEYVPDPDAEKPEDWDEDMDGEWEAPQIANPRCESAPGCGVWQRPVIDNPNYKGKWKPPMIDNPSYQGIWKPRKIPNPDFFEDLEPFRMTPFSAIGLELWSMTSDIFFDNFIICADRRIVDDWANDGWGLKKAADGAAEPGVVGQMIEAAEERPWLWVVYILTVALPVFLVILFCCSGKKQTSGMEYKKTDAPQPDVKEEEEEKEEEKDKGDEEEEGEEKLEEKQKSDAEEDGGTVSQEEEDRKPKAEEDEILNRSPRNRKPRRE
# Variants of: B1
# Conditions: with lamp3_human LAMP3, Q9UQV4
row,effect of a mutation on the interaction,Variant
1,disrupting interaction,Q215K

# Variants of: B2
# Conditions: with calx_human CANX
row,effect of a mutation on the interaction,Variant
1,increasing interaction,Q215K
